The nature of data set [1]: DSF thermal stability of chaperone proteins. The conditions noted are these: DSF of the recombinant chaperone protein.
For data set [2], the system named is 96 different HLA allotypes on single antigen HLA class I beads. The experiment in a line: SAB screen, all beads. It counts as binding, human. The conditions noted are these: across HLA allotypes; FIG. 23e. The protocol: For the Single Antigen Bead Screen, 7 μM of TAPBPR in tetramers were mixed with 4 μL of the LABScreen single antigen HLA-I bead suspension (OneLambda, Inc., CA, USA) in a 96-well plate. The samples were incubated for 1 hour, 550 rpm at RT, washed four times in Wash Buffer (OneLambda, Inc., CA, USA) to remove excess of tetramers and re-suspended in 1×PBS buffer (pH 7.2). For the negative controls, beads were incubated with the Anti-HLA Class I antibody W6/32 (Abcam, ab22432) for 30 min, 550 rpm at RT and washed three times prior tetramer addition. To test the levels of peptide loaded MHC-I molecules on the beads, Applicants used the same W6/32 antibody and the secondary anti-mouse PE-conjugated antibody (Abcam, ab97024) for detection. The levels of TAPBPR bound to the beads were measured using the Luminex 100 Liquid Array Analyzer System and the results were analyzed in GraphPad Prism v7.
SABs screen. 7 μM of TAPBPR in tetramers were mixed with 4 μL of the LABScreen single antigen HLA-I bead suspension (OneLambda, Inc., CA, USA) in a 96-well plate. […] The levels of TAPBPR bound to the beads were measured using the Luminex 100 Liquid Array Analyzer System and the results were analyzed in GraphPad Prism v9.

Data set [3] deals with T1, HLA-A*02:01 (Homo sapiens, UniProt P04439, D140Y/D185E/D98H/E176V/E277Q/G131W/G231S/I119V/I121R/I166T/I218V/L300P/L318F/N151K/N90K/P208A/P217A/Q86G/Q94H/R138H/R169H/T345S). The experiment in a line: Native gel shift assay (EMSA). The conditions noted are these: UV-irradiated HLA-A*02:01/KILGFVFJV, 1:1 molar ratio. It counts as binding. The method, then: For native gel shift assays, purified MHC-I molecules refolded with photo-labeled peptides (pMHC-I) and TAPBPR proteins were loaded into polyacrylamide gels alone at 7 μM concentration and as mixtures. For the mixtures, 1:1 molar ratio of pMHC-I and TAPBPR samples at 7 μM each were prepared and incubated at room temperature (RT) for 1 hour. The samples were then UV-irradiated for another hour at 365 nm and were run at 90 V for 5.5 hours on a 12% polyacrylamide gel. Staining was performed using InstantBlue (Novus Biologicals).
Native gel shift assay. Purified MHC-I molecules refolded with photo-labeled peptides (pMHC-I) and TAPBPR proteins were loaded into polyacrylamide gels alone at 7 μM concentration and as mixtures. For the mixtures, a 1:1 molar ratio of pMHC-I and TAPBPR samples at 7 μM each was prepared and incubated at RT for 1 hour. The samples were then UV-irradiated for another hour at 365 nm and were run at 90 V for 5.5 hours on a 12% polyacrylamide gel. Staining was performed using InstantBlue (Novus Biologicals).

For the next data set, the target named is HLA-B*37:01 (Homo sapiens, UniProt P01889, A329T/A93T/A95T/C349S/D138N/D201E/D98Y/E176V/E187T/E204Q/E69T/G107R/H137Y/K202T/L119I/N104T/N87E/Q94N/R106L/R155S/R180D/S101D/S121R/V306I/Y123S/Y140F/Y33H/Y91S). The experiment in a line: SAB screen. It counts as binding. The conditions noted are these: HLA-B*37:01 beads; FIG. 41.
The next data set deals with T2, HLA-A*02:06 (Homo sapiens, UniProt P04439, D140Y/D185E/D98H/E176V/E277Q/F33Y/G131W/G231S/I119V/I121R/I166T/I218V/L300P/L318F/N151K/N90K/P208A/P217A/Q86G/Q94H/R138H/R169H/T345S).
T2 construct: made in house
The experiment in a line: Fluorescence polarization (FP) peptide exchange. It counts as biochemical. To be noted: pHLA-A*02:06.

In another data set the target is HLA-B*08:01 (Homo sapiens, UniProt P01889, A93T/A95T/D138N/E176V/E187T/K202T/Q94N/R180D/S35A/V36M/Y33D/Y91F). The experiment in a line: Fluorescence polarization (FP) peptide exchange. To be noted: based on DSF or FP assays.
The target of data set [4] is T1, HLA-A*02:01. The experiment in a line: SPR. To be noted: peptide-deficient (empty) HLA-A*02:01.
The target of data set [5] is T1, HLA-A*02:01. The experiment in a line: Fluorescence polarization (FP) peptide exchange. The conditions noted are these: HLA-A*02:01/KILGFVFβFV, […].
Another data set has as its target HLA-A*01:01 (Homo sapiens, UniProt P04439, A114D/A174V/A182V/D101N/D185E/E176A/E190D/L180R/Q94H/R68K/S129P/T187R/V100A/V91M/W191G). The data set can be described thus: Fluorescence polarization (FP) peptide exchange. To be noted: HLA-A*01:01, chaperone at 5 μM.

B1: moTAPBPR: recombinant luminal domain of mouse TAPBPR, XP_030111162.1 (protein)
chain: TDPPTAPTTAERQRQPTDIILDCFLVTEDRHRGAFASSGDRERALLVLKQVPVLDDGSLEGITDFQGSTETKQDSPVIFEASVDLVQIPQAEALLHADCSGKAVTCEISKYFLQARQEATFEKAHWFISNMQVSRGGPSVSMVMKTLRDAEVGAVRHPTLNLPLSAQGTVKTQVEFQVTSETQTLNHLLGSSVSLHCSFSMAPGLDLTGVEWRLQHKGSGQLVYSWKTGQGQAKRKGATLEPEELLRAGNASLTLPNLTLKDEGNYICQISTSLYQAQQIMPLNILAPPKIQLHLANKDPLPSLVCSIAGYYPLDVGVTWIREELGGIPAQVSGASFSSLRQSTMGTYSISSTVMADPGPTGATYTCQVAHVSLEEPLTTSMRVLPNPEQRG
Turning to B1, in data set [1], the Tm was 56 °C. Besides, the MFI ratios entry in data set [2] is given as “less than 5.8”. In addition, in the data set with HLA-A*02:01 [3], the TAPBPR/MHC-I complex formation result is reported as “formed a new band”.

B2: chTapasin: recombinant luminal domain of chicken Tapasin, a homolog of TAPBPR (protein)
chain: QFRVEDAASPPPPPAPVRCALLEGVGRGGGLPGGGNARPALLRFGGDAETPPEPGPEPEVTFNVSDPWGTLTPLGVPPRTPPSCELNPTNPQTGSDPWSRPLHPDARSPPTAGGQWWVAAVGTPQYGVTALLQGGMGTEGTITAAVALAVLTHTPTLRARVGSPIHLHCAFAAPPSSFVLEWRHQNRGAGRVLLAYDSSTARAPRAHPGAELLLGTRDGDGVTAVTLRLARPSPGDEGTYICSVFLPHGHTQTVLQLHVFEPPKVTLSPKNLVVAPGTSAELRCHVSGFYPLDVTVTWQRRAGGSGTSQSPRDTVMDSWTSGHRQAADGTYSRTAAARLIPARPQHHGDIYSCVVTHTALAKPMRVSVRLLLAGTEGPHLEDIT
For B2, in the data set with HLA-B*37:01, the “binding of Tapasin tetramers (MFI)” value is on record as “tight binding”. The Tm in [1] turned out to be 58 °C.

B3: hTAPBPR^KRQ: human TAPBPR mutant R105K, K211R, R270Q (protein)
chain: KPHPAEGQWRAVDVVLDCFLAKDGAHRGALASSEDRARASLVLKQVPVLDDGSLEDFTDFQGGTLAQDDPPIIFEASVDLVQIPQAEALLHADCSGKEVTCEISKYFLQMTETTVKTAAWFMANMQVSGGGPSISLVMKTPRVTKNEALWHPTLNLPLSPQGTVRTAVEFQVMTQTQSLSFLLGSSASLDCGFSMAPGLDLISVEWRLQHRGRGQLVYSWTAGQGQAVRKGATLEPAQLGMARDASLTLPGLTIQDEGTYICQITTSLYQAQQIIQLNIQASPKVRLSLANEALLPTLICDIAGYYPLDVVVTWTREELGGSPAQVSGASFSSLRQSVAGTYSISSSLTAEPGSAGATYTCQVTHISLEEPLGASTQVVPPERR
For B3, in the data set with HLA-A*02:06, the “k2overall, fold improved compared to hTAPBPR” value is recorded as “approximately 9 fold”. The Peptide exchange entry with HLA-B*08:01 was “failed to catalyze peptide exchange”. The same molecule gave a dissociation constant (Kd) with HLA-A*02:01 [4] of 243 nM. Also, the melting temperature (Tm) in data set [1] worked out at 52.3 °C. The “k2overall, fold higher than hTAPBPR” value with HLA-A*02:01 [5] is given as “approximately 60 fold”. Besides, in the data set with HLA-A*01:01, the “apparent rate constant kapp” value was 0.00013 s⁻¹.

The values are drawn from patent publication US20250179143A1, “SYSTEMS AND METHODS FOR CHAPERONE-MEDIATED LIGAND EXCHANGE ON MHC-I AND MHC-RELATED MOLECULES USING CHICKEN TAPBPR” (priority 2022, published 2025).
